B1: ANKRD17 (parent)
chain: EMVRFLLEAGADQEHKTDEMHTAL
B2: DLC1 (parent)
chain: AEVVKIRDSFSNQNTETKDTKSR

Variants of: B1
Assay: protein stability index of a GFP-peptide fusion (GPS, HEK-293T) (PSI 1-6); higher = more stable
Details: c terminus: a fixed tail appended
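Note: lentivirally expressed fusions sorted by FACS into six bins by GFP to DsRed ratio, PSI derived from sequencing read proportions per bin multiplied by bin number.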

Protein stability index, by site and new letter:
K16: T 3.44 | S 2.91 | P 2.45 | I 2.72 | D 3.54 | W 1.88 | L 3.11 | M 3.06 | C 2.56 | Y 2.22 | R 2.51 | H 2.87 | E 2.68 | A 3.16 | Q 2.53 | G 2.56 | N 3.29 | F 3 | V 3.18
V3: D 5.21 | M 2.87 | I 3.11 | Y 3.02 | L 2.62 | T 4.51 | Q 4.44 | F 2.97 | G 4.81 | A 4.03 | C 3.84 | R 4.56 | E 5.24 | N 4.47 | S 4.82 | H 4.55 | P 4.83 | K 4.2 | W 2.65
D18: L 1.7 | A 2.31 | K 2.47 | F 1.34 | I 2.64 | E 3.16 | C 2.01 | H 2.01 | G 2.26
R4: P 4.8 | L 2.35 | A 2.99 | W 2.08 | F 2.77 | D 4.17 | G 3.86 | N 3.22 | T 3.22 | C 3.14 | H 3.2 | E 3.47 | M 2.46 | V 2.65 | S 3.64 | I 2.19 | Q 3.61 | K 3.22 | Y 2.35
L7: Y 3.17 | P 4.99 | D 5.07 | H 4.27 | T 3.99 | S 3.95 | C 3.56 | G 4.76 | N 3.72 | I 3.31 | E 4.79 | A 4.08 | K 3.7 | W 3.26 | V 3.64 | R 4.13 | M 3.4 | F 3.31 | Q 4.04
Q13: F 2.11 | K 2.92 | D 3.77 | C 3.28 | H 2.46 | I 2.36 | N 2.86 | R 2.22 | Y 1.87 | M 2.25 | L 2.03 | E 2.79 | P 2.67 | A 2.65 | W 2.27 | S 2.94 | V 2.69 | T 3.83 | G 2.78
E14: G 2.63 | N 1.95 | S 2.15 | L 1.79 | V 1.82 | H 2.01 | R 1.95 | K 2.76 | F 1.9 | Y 1.44 | C 1.5 | W 1.67 | P 1.9 | M 2.72 | T 2.04 | A 1.69 | D 2.61 | I 1.28 | Q 2.46
T17: L 2.22 | P 3.17 | F 2.15 | K 3.12 | C 2.5 | I 2.16 | W 2.19 | V 2.37 | H 2.55 | G 2.94 | D 3.12 | Y 2.33 | N 2.21 | M 2.71 | E 2.99 | Q 2.54 | S 2.76 | R 2.68 | A 2.45
D12: G 1.96 | N 2.17 | Y 1.89 | V 2.05 | Q 2.66 | E 2.76 | F 1.66 | H 1.94 | P 2.25 | M 2.07 | W 1.43 | A 2.38 | K 2.69 | I 1.62 | R 2.05 | S 2.29 | T 2.21 | L 1.09 | C 1.44
A11: F 1.83 | V 2.94 | H 3.22 | C 2.57 | E 2.68 | Q 2.58 | K 2.64 | L 2.04 | W 2.22 | Y 2.01 | S 3.1 | I 2.29 | T 3.53 | N 3.29 | P 3.73 | R 3.02 | M 1.87 | G 3.45 | D 3.21
F5: H 3.48 | S 4.56 | C 3.77 | K 4.33 | M 2.87 | Y 2.25 | R 3.77 | I 2.88 | W 2.26 | E 4.71 | G 4.11 | N 4.29 | L 2.56 | V 3.7 | D 4.92 | Q 4.22 | P 4.91 | A 3.9 | T 4.38
G10: M 2.05 | D 3.13 | Q 2.57 | F 2.18 | S 2.03 | N 2.82 | T 2.27 | K 2.57 | C 2.13 | W 2.2 | I 1.98 | V 2.07 | R 1.67 | E 3.32 | L 1.95 | H 2.57 | Y 1.72 | A 2.76 | P 3.73
M2: D 5.29 | H 4.21 | Y 2.81 | A 3.71 | P 4.75 | V 2.73 | G 4.74 | Q 4.64 | L 1.95 | F 1.97 | C 3.4 | R 4.21 | N 5.32 | S 4.63 | K 4.64 | T 4.4 | I 1.93 | W 2.5 | E 4.73
E1: R 2.81 | C 2.48 | F 2.56 | M 1.97 | T 2.73 | H 2.75 | L 2.16 | G 3.41 | S 3.41 | A 2.3 | P 4.17 | D 2.82 | I 1.74 | W 2.05 | Y 2.54 | N 3.37 | Q 2.9 | V 2.12 | K 2.48
A9: K 3.05 | I 1.98 | G 2.8 | W 1.89 | M 2.22 | Q 2.78 | R 2.03 | C 2.62 | T 3.04 | E 3.44 | P 3.08 | Y 2.54 | F 2.32 | V 2.29 | D 3.09 | H 2.58 | S 2.96 | N 2.92 | L 2.59
E8: Y 1.78 | A 2.15 | G 2.08 | C 2.14 | D 2.72 | R 2.03 | T 2.63 | S 2.62 | W 1.19 | I 2.07 | P 3.11 | M 2.62 | K 2.71 | V 1.89 | F 1.94 | Q 2.67 | L 2.52 | N 2.48 | H 2.43
L6: Q 4.75 | K 4.7 | N 4.55 | A 4.45 | T 4.62 | P 5.04 | Y 3.81 | V 3.51 | R 4.55 | E 5.28 | M 3.75 | I 2.63 | W 3.25 | G 4.95 | D 5.47 | H 4.42 | C 4.22 | S 4.69 | F 3.08
H15: V 2.69 | Q 3 | N 3.21 | P 2.33 | I 2.56 | C 3.16 | D 3.33 | S 2.79 | T 3.02 | L 2.71 | M 2.42 | K 2.92 | G 2.73 | R 2.44 | W 1.72 | A 2.76 | F 1.94 | E 3.04 | Y 1.97

Variants of: B2
Assay: as above
Details: c terminus: native

Protein stability index of substitutions, site by site:
R23: W 3.23 | Y 4.56

Reference: the supplement of paper PMC10567573
